For 129 substances, amyloid nucleation score results are on record in the supplement of paper PMC12042874.

± gives the uncertainty stated by the source.

This series in a line: amyloid nucleation score (Sup35N fusion, yeast selection) (log enrichment); library NNK3; higher = more nucleation; inactive = no reads after selection. In outline:
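On medium lacking adenine and uracil, psi-negative yeast expressing peptides of 20 random codons fused to Sup35N were grown 7 days at 30°C after a 24-hour induction with 100 μM copper sulfate. Illumina sequencing of input and output plasmid inserts gave the reads, and sequences under 100 input reads were excluded. The nucleation score is the DiMSum log enrichment of output over input reads, centred on the mode score of non-aggregating sequences.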
With LSVANQNCVKLDIVHM, the amyloid nucleation score entry is “inactive”. As to TLGSAEDMYRQPRIANTDSC, the amyloid nucleation score was -0.123 ± 0.59. On to IHCGACYSACWVRLGAWMTC, for which the amyloid nucleation score entry was “inactive”.

In turn, VRDFGLPTWAQLAWMYNANG yielded an amyloid nucleation score of -0.229 ± 1.1. In the case of IFLVVPGHDLWNCRRS, the amyloid nucleation score entry was “inactive”. For the substance GNFKCELVSALSDNIICPYM, the amyloid nucleation score entry was “inactive”. To RLLRVGFMLRFLIMIRRVRF belongs -0.365 ± 1. Substance DATDCVRASMFMSFDASRH had an amyloid nucleation score of 1.29 ± 0.13.

As for QDLTLLCVSIWWKLGWSESR, the amyloid nucleation score entry was “inactive”. The result for GMDKRNNYMSIIDWRVPHSI reads “inactive”; that for VASSKQYLGTVTYLDGVA, “inactive”; that for TFDPKL, “inactive”. As to SFWTQ, the amyloid nucleation score entry is “inactive”. The result for HFRDAVGWGFINGCHPAGSG reads “inactive”. EVSHSVEQYFSFMCHHTWAP: the amyloid nucleation score entry is “inactive”. For the substance KVCSVVLLGLFSYMYRGYVM, the amyloid nucleation score entry was “inactive”. The result for LLVSQLRYYWTATRNKFIF reads “inactive”; that for ATPFGWDHN, “inactive”; that for ICLCLHCIYSRSITSAVLSA, “inactive”. To RLNYWMTDDGCGRSCDTRVE belongs “inactive”. TCLWFLFIKRSSRDSEIWS: the amyloid nucleation score turned out to be 0.209 ± 0.53.

Regarding FDACLTERVVGISKDTDTSG, the amyloid nucleation score entry was “inactive”. The result for DTRFWTARLLYFFI reads “inactive”. In the case of FLLSVNQASNYGTWILWFYR, the amyloid nucleation score entry was “inactive”. The result for TNNAIGVFSLECIGFPEAGR reads “inactive”. Turning to NHLMTFLVWWLMIALLPHLD, the amyloid nucleation score result was “inactive”. The result for NTMLKSVMVFWRMLDFRFRL reads “inactive”; that for FNKNTDRGI, “inactive”. On to FVNVKFQTLCNYIWCTSPYE, for which the amyloid nucleation score came to 2.9 ± 0.06. In the case of SQDFKLPSLSTFYRHGMEPS, the amyloid nucleation score entry was “inactive”. As for ENIVCLAGKQHNHEMG, the amyloid nucleation score entry is “inactive”. Take GREAGVIIWVRCLYFYVFER: the amyloid nucleation score entry was “inactive”. For SFLSKGRSRSSFQWYQGHRA, the amyloid nucleation score is -0.302 ± 1.1. Consider GKNSCCKLIVWDEVFGLKLC, for which the amyloid nucleation score result is “inactive”. VNGFRVHWERPEHCYSVLML: the amyloid nucleation score entry was “inactive”.

Take VILMEDKSLMSWTRTIIVSM: the amyloid nucleation score entry was “inactive”. As to TRCYRASE, the amyloid nucleation score result was “inactive”. As to FRNSGTNACIL, the amyloid nucleation score result was “inactive”.

VNLGDGHVDDSIASQDMWHK: the amyloid nucleation score entry was “inactive”. With HGMGYRAIFIFNLISQPRLE, the amyloid nucleation score stood at 2.52 ± 0.078. For the substance QYLSRCLTWSYVTVKSLRSN, the amyloid nucleation score result is “inactive”. As to HFYRLAYTSISWVYRSLGAE, the amyloid nucleation score entry is “inactive”. In turn, LPEMGFFSLVDNWLAVAFSK had an amyloid nucleation score of 1.46 ± 0.081. In the case of CIILRVCTHLVKSSARLPAP, the amyloid nucleation score entry was “inactive”. In the case of IEAEHYCLLLVFLQVGLSSA, the amyloid nucleation score result is “inactive”.

In the case of GFMGFVTSHVKMTGNMCNEI, the amyloid nucleation score entry was “inactive”. DGVLNRSNDHPVQTPWPWFW: the amyloid nucleation score result was “inactive”. Regarding RIQCIRLDHFSLSLFYFFTA, the amyloid nucleation score was 0.636 ± 0.21. Substance VLLARIDAVFITVLR registered an amyloid nucleation score of 1.25 ± 0.12.

Take THPVSCRYVSPDMSSAHYFV: the amyloid nucleation score entry is “inactive”. In the case of TQFTLCTIHSVLCVNA, the amyloid nucleation score came out at 2.06 ± 0.078.

For IFCAPRAEVSGSYYRGNVSV, the amyloid nucleation score entry is “inactive”. To LPPFCGSGCLSGLLRSKTRR belongs 0.617 ± 0.19; to VYHLQLLVGVRGLNPRCAQE, “inactive”; to QQLRNWFHLDPTLARKPKFL, “inactive”. KSFQGSITILVFSWLINNPR: the amyloid nucleation score entry is “inactive”. In the case of QERTKSFWPLLLALALPSDQ, the amyloid nucleation score entry was “inactive”. Turning to LVFKLAEMCADPIKQRCCGL, the amyloid nucleation score entry was “inactive”. On to INDLQTSPR, for which the amyloid nucleation score result was “inactive”. For the substance VGHSNNQFSGFEMCHDNTLL, the amyloid nucleation score result was “inactive”. AFGLVLLSTLHNASIIPRWF: the amyloid nucleation score entry was “inactive”.

Regarding HRFSVWSEYCILIFRLQHRP, the amyloid nucleation score entry is “inactive”. Regarding CRVAMILSCFTMVFCSQAAT, the amyloid nucleation score amounted to 1.5 ± 0.081.

Turning to YIEAIYRDVPPECGTLLRTL, the amyloid nucleation score result is “inactive”. For the substance IKSGFW, the amyloid nucleation score result was “inactive”. LDRSVIIVSLILS registered an amyloid nucleation score of 1.87 ± 0.072. On to FPGVLSLRYYLLRMRTQ, for which the amyloid nucleation score result was “inactive”. The substance LVSTEKWEYLGQCARRELRF had an amyloid nucleation score of -0.884 ± 2.4.

For the substance TNVSEFQALTWMNTWYSAFS, the amyloid nucleation score entry was “inactive”. The result for LLHFVHNSSSMLVRRREETG reads 0.262 ± 0.39; that for IWFKWNRCNVRGMTWTDFYA, 1.17 ± 0.082; that for TWSSLFMIFQYTCAGCWDFK, 1.52 ± 0.068. Turning to CLCSDTNVK, the amyloid nucleation score entry is “inactive”. To GRVESSVIYRPLNLGGGQES belongs “inactive”; to FIDNRGSDSSTICCYNYAAQ, 0.407 ± 0.61. Substance MWACSKYRWMHATDGVGLTY returned an amyloid nucleation score of 0.674 ± 0.17.

Turning to GGSARCNRLCWYAVLDVLLL, the amyloid nucleation score result was “inactive”.

GKLFWFCFRWRYLLTKMVQN showed an amyloid nucleation score of -0.702 ± 1.3. Consider EFAGCKRRMRKGPIIVPADV, for which the amyloid nucleation score result is “inactive”. As to SMCRTPILQPIAVQNVSMGR, the amyloid nucleation score entry was “inactive”. With MEWFFVSYPLITGWMGS, the amyloid nucleation score result was “inactive”. RAITSVSYVWTGRCL yielded an amyloid nucleation score of 0.803 ± 0.14. Consider VRQWSTFASLMYATENGVNN, for which the amyloid nucleation score entry is “inactive”. For NPSVPTQTPVDMWACTKG, the amyloid nucleation score result was “inactive”. In the case of TNDFVNV, the amyloid nucleation score entry is “inactive”. On to VYMNGIKVKDGLSTYWVPRE, for which the amyloid nucleation score is -0.161 ± 0.69. Consider LRASFWECLCCCVVR, for which the amyloid nucleation score is 2.33 ± 0.073. With YSTPTDMLDLQFDKSASRGV, the amyloid nucleation score entry is “inactive”. RGLQELLWI displayed an amyloid nucleation score of -0.999 ± 1.9.

Consider VCIVVGARGGGYVLRTPLRG, for which the amyloid nucleation score result was “inactive”. The result for WPYGIVTLRTWANYLGLFTL reads -0.796 ± 1.1; that for SQSLPFVCA, “inactive”; that for VVCDNYG, 0.607 ± 0.23. For the substance MKVEVYPSTVFMRYRVNWVI, the amyloid nucleation score result was “inactive”. To QHTGGVLRRTMFINRVSRRM belongs “inactive”; to LIWFGGGPSRWSM, -0.117 ± 1.1. On to MFLSALDNGLLVNGYVICVC, for which the amyloid nucleation score entry was “inactive”. RFIVANHLGGVYLQE: the amyloid nucleation score entry is “inactive”. Regarding CAKDMMCRVYMSLLLHLGVD, the amyloid nucleation score result is “inactive”. As to ILFTYCSYINREVLRWMQDS, the amyloid nucleation score result was “inactive”. On to WSTMMNNWCLLWGCKLKPKL, for which the amyloid nucleation score result is “inactive”. For SAFNEFFF, the amyloid nucleation score entry is “inactive”.

For the substance LDVPWRTFLNGFHSFLT, the amyloid nucleation score result was “inactive”.

As to RKGNGMHKNSYSTARMYCGF, the amyloid nucleation score result was “inactive”.

For WVWMTETVLWFRYKQVACGW, the amyloid nucleation score result is “inactive”.

With KRGNQGGAMEDFLCNADIRV, the amyloid nucleation score entry was “inactive”. As for KSTTACASRTYMCMHTGRNC, the amyloid nucleation score result was “inactive”. Regarding SRDFKIGCWLKIRSVIDPVW, the amyloid nucleation score result is “inactive”. For QNFRIYTVSLLNNRYDELIS, the amyloid nucleation score result is “inactive”. In turn, QHAQGYLRGSTMYFEMM had an amyloid nucleation score of 0.357 ± 0.25. In turn, VVMVLRVLLWWFRTSIMSRK had an amyloid nucleation score of 0.467 ± 0.19.

As for PFHGSLDWSTTESAMT, the amyloid nucleation score result is “inactive”. With ERVNVVR, the amyloid nucleation score entry was “inactive”. SPICNEEYNNVDTCILWGYF: the amyloid nucleation score entry is “inactive”. As to PLLIAVQWTMTAGCRSHKLL, the amyloid nucleation score was -0.781 ± 2.5. As for RSVSDYSSNCRAHCLVDDDT, the amyloid nucleation score entry was “inactive”.

As to LGYTQSVTVMRLMSQYKKAG, the amyloid nucleation score was -0.334 ± 0.55. The result for LKWCFFCCN reads 2.54 ± 0.065; that for RVMFMASVWSNCGLWSSGTS, 1.39 ± 0.15; that for WRMDSRYYCYYQFLSLSYQW, “inactive”. With GWFRSQSMPIALEYLTGPGS, the amyloid nucleation score entry is “inactive”. On to KLNAVYTRSAGWLSHQEM, for which the amyloid nucleation score entry was “inactive”. On to CCTSA, for which the amyloid nucleation score result was “inactive”. To RNIRYLTLYQVTYLGRRRT belongs 2.25 ± 0.093; to DGWFNQCASESSFKVHHGS, “inactive”; to TCGVVSPRGMSNMLCLGGWS, “inactive”. In the case of FYSIPMLRLVVNNVLKLTAI, the amyloid nucleation score result is “inactive”. As for NPIIKKSKLLKGHLSTCPMV, the amyloid nucleation score result was “inactive”. With SSDCMDDRCCDNCDSSRLLW, the amyloid nucleation score entry was “inactive”.
